We go through 2 molecules from patent publication US12227742B2, “Nucleic acid modifiers” (THE BROAD INSTITUTE, INC., priority 2017, dated 2025).

The test system of test [1] is target DNA. As to the kind of experiment: SpCas9 DNA cleavage activity, mutational analysis. Format: biochemical. The settings on record: 5′-NGG PAM (5′-GGGCT).
In test [2] the test system is target DNA. Description: SaCas9 DNA cleavage activity, mutational analysis. The test is classed as biochemical.

B1: St3Cas9: Streptococcus thermophilus CRISPR-3 Cas9 (protein, UniProt G3ECR1 1-1409, looked up)
CRISPR-associated …: MLFNKCIIISINLDFSNKEKCMTKPYSIGLDIGTNSVGWAVITDNYKVPSKKMKVLGNTSKKYIKKNLLGVLLFDSGITAEGRRLKRTARRRYTRRRNRILYLQEIFSTEMATLDDAFFQRLDDSFLVPDDKRDSKYPIFGNLVEEKVYHDEFPTIYHLRKYLADSTKKADLRLVYLALAHMIKYRGHFLIEGEFNSKNNDIQKNFQDFLDTYNAIFESDLSLENSKQLEEIVKDKISKLEKKDRILKLFPGEKNSGIFSEFLKLIVGNQADFRKCFNLDEKASLHFSKESYDEDLETLLGYIGDDYSDVFLKAKKLYDAILLSGFLTVTDNETEAPLSSAMIKRYNEHKEDLALLKEYIRNISLKTYNEVFKDDTKNGYAGYIDGKTNQEDFYVYLKNLLAEFEGADYFLEKIDREDFLRKQRTFDNGSIPYQIHLQEMRAILDKQAKFYPFLAKNKERIEKILTFRIPYYVGPLARGNSDFAWSIRKRNEKITPWNFEDVIDKESSAEAFINRMTSFDLYLPEEKVLPKHSLLYETFNVYNELTKVRFIAESMRDYQFLDSKQKKDIVRLYFKDKRKVTDKDIIEYLHAIYGYDGIELKGIEKQFNSSLSTYHDLLNIINDKEFLDDSSNEAIIEEIIHTLTIFEDREMIKQRLSKFENIFDKSVLKKLSRRHYTGWGKLSAKLINGIRDEKSGNTILDYLIDDGISNRNFMQLIHDDALSFKKKIQKAQIIGDEDKGNIKEVVKSLPGSPAIKKGILQSIKIVDELVKVMGGRKPESIVVEMARENQYTNQGKSNSQQRLKRLEKSLKELGSKILKENIPAKLSKIDNNALQNDRLYLYYLQNGKDMYTGDDLDIDRLSNYDIDHIIPQAFLKDNSIDNKVLVSSASNRGKSDDFPSLEVVKKRKTFWYQLLKSKLISQRKFDNLTKAERGGLLPEDKAGFIQRQLVETRQITKHVARLLDEKFNNKKDENNRAVRTVKIITLKSTLVSQFRKDFELYKVREINDFHHAHDAYLNAVIASALLKKYPKLEPEFVYGDYPKYNSFRERKSATEKVYFYSNIMNIFKKSISLADGRVIERPLIEVNEETGESVWNKESDLATVRRVLSYPQVNVVKKVEEQNHGLDRGKPKGLFNANLSSKPKPNSNENLVGAKEYLDPKKYGGYAGISNSFAVLVKGTIEKGAKKKITNVLEFQGISILDRINYRKDKLNFLLEKGYKDIELIIELPKYSLFELSDGSRRMLASILSTNNKRGEIHKGNQIFLSQKFVKLLYHAKRISNTINENHRKYVENHKKEFEELFYYILEFNENYVGAKKNGKLLNSAFQSWQNHSIDELCSSFIGPTGSERKGLFELTSRGSAADFEFLGVKIPRYRDYTPSSLLKDATLIHQSVTGLYETRIDLAKLGEG
Take B1: the “cleavage of target DNA with 5′-NGG PAM” value in the test on target DNA [1] is “not”.

B2: SaCas9 T787A (protein, UniProt J7RUA5 1-1053, looked up, variant T787A)
CRISPR-associated …: MKRNYILGLDIGITSVGYGIIDYETRDVIDAGVRLFKEANVENNEGRRSKRGARRLKRRRRHRIQRVKKLLFDYNLLTDHSELSGINPYEARVKGLSQKLSEEEFSAALLHLAKRRGVHNVNEVEEDTGNELSTKEQISRNSKALEEKYVAELQLERLKKDGEVRGSINRFKTSDYVKEAKQLLKVQKAYHQLDQSFIDTYIDLLETRRTYYEGPGEGSPFGWKDIKEWYEMLMGHCTYFPEELRSVKYAYNADLYNALNDLNNLVITRDENEKLEYYEKFQIIENVFKQKKKPTLKQIAKEILVNEEDIKGYRVTSTGKPEFTNLKVYHDIKDITARKEIIENAELLDQIAKILTIYQSSEDIQEELTNLNSELTQEEIEQISNLKGYTGTHNLSLKAINLILDELWHTNDNQIAIFNRLKLVPKKVDLSQQKEIPTTLVDDFILSPVVKRSFIQSIKVINAIIKKYGLPNDIIIELAREKNSKDAQKMINEMQKRNRQTNERIEEIIRTTGKENAKYLIEKIKLHDMQEGKCLYSLEAIPLEDLLNNPFNYEVDHIIPRSVSFDNSFNNKVLVKQEENSKKGNRTPFQYLSSSDSKISYETFKKHILNLAKGKGRISKTKKEYLLEERDINRFSVQKDFINRNLVDTRYATRGLMNLLRSYFRVNNLDVKVKSINGGFTSFLRRKWKFKKERNKGYKHHAEDALIIANADFIFKEWKKLDKAKKVMENQMFEEKQAESMPEIETEQEYKEIFITPHQIKHIKDFKDYKYSHRVDKKPNRELINDALYSTRKDDKGNTLIVNNLNGLYDKDNDKLKKLINKSPEKLLMYHHDPQTYQKLKLIMEQYGDEKNPLYKYYEETGNYLTKYSKKDNGPVIKKIKYYGNKLNAHLDITDDYPNSRNKVVKLSLKPYRFDVYLDNGVYKFVTVKNLDVIKKENYYEVNSKCYEEAKKLKKISNQAEFIASFYNNDLIKINGELYRVIGVNNDLLNRIEVNMIDITYREYLENMNDKRPPRIIKTIASKTQSIKKYSTDILGNLYEVKSKKHPQIIKKG
B2: the DNA cleavage activity result in the test on target DNA [2] is recorded as “reduced DNA cleavage activity”.
